Laboratory results taken from publication PMC6555819, “Comprehensive study of nuclear receptor DNA binding provides a revised framework for understanding receptor specificity”.

How the values were obtained:
[1] = molecular target: LXRb:RXRa (Homo sapiens, UniProt P55055;P19793 full;full); test: no ligand; PBM; 270 nM : 90 nM RXRa; PBS pH 7.4, 2% milk, 0.02% Triton X-100, 1 mM DTT, BSA, 0.4 mg/ml salmon testes DNA; details: tags: His kept;His cleaved; copies: 1;1; label: surface-attached array probe
Sequence of LXRb:RXRa (P55055 whole entry, chain 1 of 2): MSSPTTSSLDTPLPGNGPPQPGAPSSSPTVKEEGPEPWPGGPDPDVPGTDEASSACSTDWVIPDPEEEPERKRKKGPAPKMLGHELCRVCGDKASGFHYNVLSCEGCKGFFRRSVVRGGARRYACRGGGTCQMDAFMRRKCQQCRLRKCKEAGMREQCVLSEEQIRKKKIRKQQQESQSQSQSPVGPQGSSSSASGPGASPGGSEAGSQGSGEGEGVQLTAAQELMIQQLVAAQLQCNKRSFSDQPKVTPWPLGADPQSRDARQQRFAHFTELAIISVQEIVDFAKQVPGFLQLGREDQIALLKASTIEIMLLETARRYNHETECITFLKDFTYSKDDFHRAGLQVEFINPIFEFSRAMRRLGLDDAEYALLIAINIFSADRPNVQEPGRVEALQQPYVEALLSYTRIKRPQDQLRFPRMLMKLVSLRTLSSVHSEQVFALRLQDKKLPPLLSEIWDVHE
Sequence of LXRb:RXRa (P19793 whole entry, chain 2 of 2): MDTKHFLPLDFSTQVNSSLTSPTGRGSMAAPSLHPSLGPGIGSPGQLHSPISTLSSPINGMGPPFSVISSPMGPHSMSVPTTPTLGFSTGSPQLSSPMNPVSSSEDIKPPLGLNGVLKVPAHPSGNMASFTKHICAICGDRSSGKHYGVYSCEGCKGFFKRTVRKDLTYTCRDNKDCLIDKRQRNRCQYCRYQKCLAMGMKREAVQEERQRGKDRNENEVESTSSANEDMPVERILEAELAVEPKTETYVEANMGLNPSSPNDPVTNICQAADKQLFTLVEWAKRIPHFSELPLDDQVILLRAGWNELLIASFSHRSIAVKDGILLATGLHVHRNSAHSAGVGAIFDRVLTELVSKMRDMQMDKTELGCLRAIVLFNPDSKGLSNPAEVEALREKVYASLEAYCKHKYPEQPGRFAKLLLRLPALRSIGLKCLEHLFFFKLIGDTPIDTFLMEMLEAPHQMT
Procedure, shortened: (§1)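 Binding buffer was PBS pH 7.4 with 2% milk, 0.02% Triton X-100, 1 mM DTT, 0.2 mg/mL BSA and 0.4 mg/ml salmon testes DNA. In it, ligand-free nuclear receptor dimers were incubated 1 h on custom Agilent 4×180K protein-binding microarrays carrying double-stranded probes. Antibodies against each partner (one per run) detected binding, and z-scores were calculated against random background probes after regression normalization of scanned fluorescence.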

[2] = molecular target: RARg:RXRa (Homo sapiens, UniProt P13631;P19793 full;full); test: as above; details: tags: His kept;His cleaved; copies: 1;1; label: surface-attached array probe
Sequence of RARg:RXRa (P13631 whole entry, chain 1 of 2): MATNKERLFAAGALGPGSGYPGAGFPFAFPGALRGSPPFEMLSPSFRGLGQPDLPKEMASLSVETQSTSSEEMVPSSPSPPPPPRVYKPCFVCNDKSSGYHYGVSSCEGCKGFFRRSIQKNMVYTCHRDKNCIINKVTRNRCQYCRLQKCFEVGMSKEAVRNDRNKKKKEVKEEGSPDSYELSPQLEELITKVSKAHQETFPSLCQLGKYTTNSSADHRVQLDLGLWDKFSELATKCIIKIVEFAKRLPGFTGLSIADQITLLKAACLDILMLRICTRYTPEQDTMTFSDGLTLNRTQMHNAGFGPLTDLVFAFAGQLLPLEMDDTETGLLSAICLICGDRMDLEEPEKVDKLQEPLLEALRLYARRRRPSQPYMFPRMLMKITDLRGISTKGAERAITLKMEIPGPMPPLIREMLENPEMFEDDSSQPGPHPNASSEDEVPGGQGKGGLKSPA
Sequence of RARg:RXRa (P19793 whole entry, chain 2 of 2): as the sequence (P19793 whole entry, chain 2 of 2) above
Procedure, shortened: as §1

[3] = molecular target: FXR:RXRa (Homo sapiens, UniProt Q96RI1;P19793 full;full); test: as above; details: tags: His kept;His cleaved; copies: 1;1; label: surface-attached array probe
Sequence of FXR:RXRa (Q96RI1 whole entry, chain 1 of 2): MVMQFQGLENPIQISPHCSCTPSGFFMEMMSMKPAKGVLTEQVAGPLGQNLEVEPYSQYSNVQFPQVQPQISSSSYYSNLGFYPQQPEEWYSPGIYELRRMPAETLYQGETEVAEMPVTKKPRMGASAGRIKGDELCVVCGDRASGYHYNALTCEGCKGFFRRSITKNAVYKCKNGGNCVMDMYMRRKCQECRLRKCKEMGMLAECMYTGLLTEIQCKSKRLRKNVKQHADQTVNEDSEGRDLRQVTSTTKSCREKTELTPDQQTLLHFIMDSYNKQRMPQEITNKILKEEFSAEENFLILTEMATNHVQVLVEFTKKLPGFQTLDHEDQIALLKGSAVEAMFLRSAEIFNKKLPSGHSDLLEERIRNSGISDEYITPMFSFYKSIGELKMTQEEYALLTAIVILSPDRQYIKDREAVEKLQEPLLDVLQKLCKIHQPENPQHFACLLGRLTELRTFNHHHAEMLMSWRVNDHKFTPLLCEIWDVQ
Sequence of FXR:RXRa (P19793 whole entry, chain 2 of 2): as the sequence (P19793 whole entry, chain 2 of 2) above
Procedure, shortened: as §1

[4] = molecular target: RXRa (Homo sapiens, UniProt P19793); test: no ligand; PBM; 180 nM; PBS pH 7.4, 2% milk, 0.02% Triton X-100, 1 mM DTT, BSA, 0.4 mg/ml salmon testes DNA; details: tags: His cleaved; chain copies: 2; label: surface-attached array probe
Sequence of RXRa (P19793 whole entry): as the sequence (P19793 whole entry, chain 2 of 2) above

[5] = molecular target: PPARa:RXRa (Homo sapiens, UniProt Q07869;P19793 full;full); test: no ligand; PBM; 270 nM : 90 nM RXRa; PBS pH 7.4, 2% milk, 0.02% Triton X-100, 1 mM DTT, BSA, 0.4 mg/ml salmon testes DNA; details: tags: GST kept;His cleaved; copies: 1;1; label: surface-attached array probe
Sequence of PPARa:RXRa (Q07869 whole entry, chain 1 of 2): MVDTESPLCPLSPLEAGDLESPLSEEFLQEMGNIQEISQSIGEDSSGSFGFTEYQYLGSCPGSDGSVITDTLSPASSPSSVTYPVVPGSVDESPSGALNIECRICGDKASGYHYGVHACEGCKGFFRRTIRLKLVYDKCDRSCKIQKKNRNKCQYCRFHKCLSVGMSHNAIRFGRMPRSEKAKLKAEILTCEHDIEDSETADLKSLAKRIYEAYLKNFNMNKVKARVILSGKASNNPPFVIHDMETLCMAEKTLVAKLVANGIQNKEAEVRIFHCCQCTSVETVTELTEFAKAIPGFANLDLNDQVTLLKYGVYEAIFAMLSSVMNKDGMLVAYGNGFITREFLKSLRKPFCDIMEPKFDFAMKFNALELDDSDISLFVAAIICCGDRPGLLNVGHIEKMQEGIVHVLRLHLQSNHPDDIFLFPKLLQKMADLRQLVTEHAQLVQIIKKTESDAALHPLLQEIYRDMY
Sequence of PPARa:RXRa (P19793 whole entry, chain 2 of 2): as the sequence (P19793 whole entry, chain 2 of 2) above
Procedure, shortened: as §1

[6] = molecular target: RARb:RXRa (Homo sapiens, UniProt P10826;P19793 full;full); test: as above; details: tags: His kept;His cleaved; copies: 1;1; label: surface-attached array probe
Sequence of RARb:RXRa (P10826 whole entry, chain 1 of 2): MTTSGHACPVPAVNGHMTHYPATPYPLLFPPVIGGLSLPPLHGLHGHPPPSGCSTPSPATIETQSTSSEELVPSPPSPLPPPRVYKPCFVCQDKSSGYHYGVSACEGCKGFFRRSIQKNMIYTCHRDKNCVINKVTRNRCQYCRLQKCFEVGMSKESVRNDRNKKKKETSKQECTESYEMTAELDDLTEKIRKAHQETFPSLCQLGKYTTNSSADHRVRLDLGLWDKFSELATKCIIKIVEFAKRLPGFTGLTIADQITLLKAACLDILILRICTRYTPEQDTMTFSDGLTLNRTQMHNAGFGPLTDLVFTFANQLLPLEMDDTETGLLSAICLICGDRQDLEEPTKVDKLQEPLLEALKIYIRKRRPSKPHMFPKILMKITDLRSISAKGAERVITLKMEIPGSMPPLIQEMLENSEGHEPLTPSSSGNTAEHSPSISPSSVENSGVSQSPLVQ
Sequence of RARb:RXRa (P19793 whole entry, chain 2 of 2): as the sequence (P19793 whole entry, chain 2 of 2) above
Procedure, shortened: as §1

B1: NRC3_random_hg19_122_o1 (dsDNA)
DNA 1: GCTGGCAATGGCTGGACCACTCCAAGAACTGTGTGGGCGATTGACAGCGTAGAATGAAGG
DNA 2: CCTTCATTCTACGCTGTCAATCGCCCACACAGTTCTTGGAGTGGTCCAGCCATTGCCAGC
In the case of B1, the binding signal [1] is reported as -0.85 PBM z-score against 500 random probes.

B2: NRC3_random_hg19_151_o1 (dsDNA)
DNA 1: GCCCCAATCTACTAGAAACACTTCCTGGAGAACCCGGCGATTGACAGCGTAGAATGAAGG
DNA 2: CCTTCATTCTACGCTGTCAATCGCCGGGTTCTCCAGGAAGTGTTTCTAGTAGATTGGGGC
With B2 the binding signal [1] was 0.38 PBM z-score against 500 random probes and the binding signal [2] was -0.01 PBM z-score against 500 random probes.

B3: NRC3_random_hg19_495_o1 (dsDNA)
DNA 1: GCGCACCATCTGTGAGAAAGTAGCCCTTCACCAAACGCGATTGACAGCGTAGAATGAAGG
DNA 2: CCTTCATTCTACGCTGTCAATCGCGTTTGGTGAAGGGCTACTTTCTCACAGATGGTGCGC
For B3, the binding signal [3] was -0.51 PBM z-score against 500 random probes and the binding signal [1] was -0.24 PBM z-score against 500 random probes.

B4: NRC3_random_hg19_100_o1 (dsDNA)
DNA 1: GCGAGTTTGAGACCAGCCTGGCCAACATGGCAAGAGGCGATTGACAGCGTAGAATGAAGG
DNA 2: CCTTCATTCTACGCTGTCAATCGCCTCTTGCCATGTTGGCCAGGCTGGTCTCAAACTCGC
In the case of B4, the binding signal [3] is reported as -0.7 PBM z-score against 500 random probes and the binding signal [1] is reported as -1.11 PBM z-score against 500 random probes.

B5: NRC3_random_hg19_225_o1 (dsDNA)
DNA 1: GCTGGATGAAGTGGAAGAACAAGGCTATTCTTTACTGCGATTGACAGCGTAGAATGAAGG
DNA 2: CCTTCATTCTACGCTGTCAATCGCAGTAAAGAATAGCCTTGTTCTTCCACTTCATCCAGC
In the case of B5, the binding signal [4] is reported as -0.39 PBM z-score against 500 random probes, the binding signal [1] is reported as -0.34 PBM z-score against 500 random probes and the binding signal [2] is reported as 0.01 PBM z-score against 500 random probes.

B6: NRC3_random_hg19_97_o1 (dsDNA)
DNA 1: GCAAAGGCCTGAGAACCAGGACCTCCAGTGTCCTCAGCGATTGACAGCGTAGAATGAAGG
DNA 2: CCTTCATTCTACGCTGTCAATCGCTGAGGACACTGGAGGTCCTGGTTCTCAGGCCTTTGC
B6 was tested, and the binding signal [1] was -0.68 PBM z-score against 500 random probes.

B7: NRC3_wobSeed29_DR1_T22A_o1 (dsDNA)
DNA 1: GCGCTTACGGGTCAAAGGTTAAAGCATGAATAGAATGCGATTGACAGCGTAGAATGAAGG
DNA 2: CCTTCATTCTACGCTGTCAATCGCATTCTATTCATGCTTTAACCTTTGACCCGTAAGCGC
B7 was tested, and the binding signal [4] was 10 PBM z-score against 500 random probes and the binding signal [1] was 6.19 PBM z-score against 500 random probes.

B8: NRC3_wobSeed29_DR1_G17A_o1 (dsDNA)
DNA 1: GCGCTTACGGGTCAAAAGTTATAGCATGAATAGAATGCGATTGACAGCGTAGAATGAAGG
DNA 2: CCTTCATTCTACGCTGTCAATCGCATTCTATTCATGCTATAACTTTTGACCCGTAAGCGC
In the case of B8, the binding signal [1] is reported as 3.65 PBM z-score against 500 random probes and the binding signal [2] is reported as 4.11 PBM z-score against 500 random probes.

B9: NRC3_wobSeed98_DR4_C23A_o1 (dsDNA)
DNA 1: GCACTAGTTGGTCAGCTGAGGTAACACACAATTCGGGCGATTGACAGCGTAGAATGAAGG
DNA 2: CCTTCATTCTACGCTGTCAATCGCCCGAATTGTGTGTTACCTCAGCTGACCAACTAGTGC
In the case of B9, the binding signal [4] is reported as 0.48 PBM z-score against 500 random probes and the binding signal [1] is reported as 0.34 PBM z-score against 500 random probes.

B10: NRC3_wobSeed74_DR3_T21G_o1 (dsDNA)
DNA 1: GCTCTAGTTGGTCACGGAGGGCACACACGACGGGTAGCGATTGACAGCGTAGAATGAAGG
DNA 2: CCTTCATTCTACGCTGTCAATCGCTACCCGTCGTGTGTGCCCTCCGTGACCAACTAGAGC
B10 was tested, and the binding signal [3] was 0.34 PBM z-score against 500 random probes and the binding signal [1] was 0.5 PBM z-score against 500 random probes.

B11: NRC3_random_hg19_43_o1 (dsDNA)
DNA 1: GCAGGACCTCTTCAAGGAGAACTACAAACCACTGCTGCGATTGACAGCGTAGAATGAAGG
DNA 2: CCTTCATTCTACGCTGTCAATCGCAGCAGTGGTTTGTAGTTCTCCTTGAAGAGGTCCTGC
B11 was tested, and the binding signal [1] was -0.03 PBM z-score against 500 random probes, the binding signal [5] was -0.17 PBM z-score against 500 random probes and the binding signal [6] was -0.5 PBM z-score against 500 random probes.

B12: NRC3_wobSeed130_DR5_T12G_o1 (dsDNA)
DNA 1: GCCTCGAAAGGGCGTGCTCAGGTGAGTATACCAAACGCGATTGACAGCGTAGAATGAAGG
DNA 2: CCTTCATTCTACGCTGTCAATCGCGTTTGGTATACTCACCTGAGCACGCCCTTTCGAGGC
With B12 the binding signal [4] was 0.33 PBM z-score against 500 random probes and the binding signal [1] was 0.29 PBM z-score against 500 random probes.
